# Laboratory results taken from article PMC12891897, “Blocking TRIM47-mediated HNF4α degradation suppresses hepatocellular carcinoma progression” (Acta Pharmaceutica Sinica. B, 2025).
# Target: V5-tagged HNF4α (hepatocyte nuclear factor 4alpha), full length (amino acids 1–474), P41235-1
# Test: Co-IP (IP-Flag) and Western blotting, V5 band quantified
# Details: HEK293T cells, transfected for 48 h; parent: 1
row,Substance,ratio to parent [Fold]
1,"Flag-tagged TRIM47 (tripartite motif 47), full length (amino acids 1–638) (from UniProt Q96LD4-1) K534A",0.79
2,"Flag-tagged TRIM47 (tripartite motif 47), full length (amino acids 1–638) (from UniProt Q96LD4-1) K534A; K600A",0.49
3,"Flag-tagged TRIM47 (tripartite motif 47), full length (amino acids 1–638) (from UniProt Q96LD4-1) K600A",0.83

# Target: Flag-tagged TRIM47 (tripartite motif 47), full length (amino acids 1–638), Q96LD4-1
# Test: as above
# Details: HEK293T cells, co-transfected for 48 h; parent: 1
# Flag-tagged TRIM47 (tripartite motif 47), full length (amino acids 1–638), Q96LD4-1, sequence (Q96LD4 whole entry, the tested form may be a part): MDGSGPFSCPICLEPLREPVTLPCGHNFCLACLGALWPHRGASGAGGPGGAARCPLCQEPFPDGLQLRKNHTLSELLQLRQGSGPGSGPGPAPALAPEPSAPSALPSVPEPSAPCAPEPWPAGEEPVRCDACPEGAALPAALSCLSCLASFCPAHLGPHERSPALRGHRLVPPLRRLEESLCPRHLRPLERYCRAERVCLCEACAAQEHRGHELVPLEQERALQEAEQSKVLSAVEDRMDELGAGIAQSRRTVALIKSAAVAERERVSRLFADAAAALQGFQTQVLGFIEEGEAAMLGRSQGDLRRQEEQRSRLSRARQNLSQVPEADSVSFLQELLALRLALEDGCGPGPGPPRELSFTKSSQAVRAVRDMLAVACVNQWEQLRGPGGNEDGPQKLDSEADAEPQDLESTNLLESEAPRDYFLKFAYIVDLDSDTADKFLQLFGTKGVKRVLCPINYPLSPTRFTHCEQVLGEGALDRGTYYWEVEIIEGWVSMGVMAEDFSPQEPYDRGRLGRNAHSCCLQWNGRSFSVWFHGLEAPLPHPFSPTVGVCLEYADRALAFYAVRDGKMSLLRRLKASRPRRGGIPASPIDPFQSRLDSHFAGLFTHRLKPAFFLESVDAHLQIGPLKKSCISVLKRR
row,Substance,ratio to parent [Fold]
1,"V5-tagged HNF4α (hepatocyte nuclear factor 4alpha), full length (amino acids 1–474) (from UniProt P41235-1) E353A",0.38
2,"V5-tagged HNF4α (hepatocyte nuclear factor 4alpha), full length (amino acids 1–474) (from UniProt P41235-1) K342A",0.56
3,"V5-tagged HNF4α (hepatocyte nuclear factor 4alpha), full length (amino acids 1–474) (from UniProt P41235-1) K342A; W349A; E353A",0.23
4,"V5-tagged HNF4α (hepatocyte nuclear factor 4alpha), full length (amino acids 1–474) (from UniProt P41235-1) W349A",0.49
